Measurements from IntAct's records for PubMed 35512704.

B1: Speckle-type POZ protein (Homo sapiens), O43791 (parent)
chain: MSRVPSPPPPAEMSSGPVAESWCYTQIKVVKFSYMWTINNFSFCREEMGEVIKSSTFSSGANDKLKWCLRVNPKGLDEESKDYLSLYLLLVSCPKSEVRAKFKFSILNAKGEETKAMESQRAYRFVQGKDWGFKKFIRRDFLLDEANGLLPDDKLTLFCEVSVVQDSVNISGQNTMNMVKVPECRLADELGGLWENSRFTDCCLCVAGQEFQAHKAILAARSPVFSAMFEHEMEESKKNRVEINDVEPEVFKEMMCFIYTGKAPNLDKMADDLLAAADKYALERLKVMCEDALCSNLSVENAAEILILADLHSADQLKTQAVDFINYHASDVLETSGWKSMVVSHPHLVAEAYRSLASAQCPFLGPPRKRLKQS
partner: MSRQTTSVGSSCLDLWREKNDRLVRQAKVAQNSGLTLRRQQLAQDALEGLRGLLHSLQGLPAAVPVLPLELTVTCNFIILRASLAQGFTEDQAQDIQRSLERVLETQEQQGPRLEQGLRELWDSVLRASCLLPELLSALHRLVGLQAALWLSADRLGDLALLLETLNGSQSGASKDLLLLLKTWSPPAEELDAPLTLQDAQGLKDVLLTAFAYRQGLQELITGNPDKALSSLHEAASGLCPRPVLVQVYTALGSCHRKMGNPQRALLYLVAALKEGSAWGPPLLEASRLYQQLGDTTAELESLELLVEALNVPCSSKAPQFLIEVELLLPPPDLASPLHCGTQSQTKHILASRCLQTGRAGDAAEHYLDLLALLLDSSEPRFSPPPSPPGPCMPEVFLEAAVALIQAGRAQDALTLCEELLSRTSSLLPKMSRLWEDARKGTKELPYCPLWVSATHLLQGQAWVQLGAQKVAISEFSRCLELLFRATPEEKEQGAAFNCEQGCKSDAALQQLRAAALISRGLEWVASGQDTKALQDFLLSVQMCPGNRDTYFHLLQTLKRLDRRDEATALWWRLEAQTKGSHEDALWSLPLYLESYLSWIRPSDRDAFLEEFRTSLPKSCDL
B2: Speckle-type POZ protein (Homo sapiens), O43791 (parent)
chain: B1 chain
partner: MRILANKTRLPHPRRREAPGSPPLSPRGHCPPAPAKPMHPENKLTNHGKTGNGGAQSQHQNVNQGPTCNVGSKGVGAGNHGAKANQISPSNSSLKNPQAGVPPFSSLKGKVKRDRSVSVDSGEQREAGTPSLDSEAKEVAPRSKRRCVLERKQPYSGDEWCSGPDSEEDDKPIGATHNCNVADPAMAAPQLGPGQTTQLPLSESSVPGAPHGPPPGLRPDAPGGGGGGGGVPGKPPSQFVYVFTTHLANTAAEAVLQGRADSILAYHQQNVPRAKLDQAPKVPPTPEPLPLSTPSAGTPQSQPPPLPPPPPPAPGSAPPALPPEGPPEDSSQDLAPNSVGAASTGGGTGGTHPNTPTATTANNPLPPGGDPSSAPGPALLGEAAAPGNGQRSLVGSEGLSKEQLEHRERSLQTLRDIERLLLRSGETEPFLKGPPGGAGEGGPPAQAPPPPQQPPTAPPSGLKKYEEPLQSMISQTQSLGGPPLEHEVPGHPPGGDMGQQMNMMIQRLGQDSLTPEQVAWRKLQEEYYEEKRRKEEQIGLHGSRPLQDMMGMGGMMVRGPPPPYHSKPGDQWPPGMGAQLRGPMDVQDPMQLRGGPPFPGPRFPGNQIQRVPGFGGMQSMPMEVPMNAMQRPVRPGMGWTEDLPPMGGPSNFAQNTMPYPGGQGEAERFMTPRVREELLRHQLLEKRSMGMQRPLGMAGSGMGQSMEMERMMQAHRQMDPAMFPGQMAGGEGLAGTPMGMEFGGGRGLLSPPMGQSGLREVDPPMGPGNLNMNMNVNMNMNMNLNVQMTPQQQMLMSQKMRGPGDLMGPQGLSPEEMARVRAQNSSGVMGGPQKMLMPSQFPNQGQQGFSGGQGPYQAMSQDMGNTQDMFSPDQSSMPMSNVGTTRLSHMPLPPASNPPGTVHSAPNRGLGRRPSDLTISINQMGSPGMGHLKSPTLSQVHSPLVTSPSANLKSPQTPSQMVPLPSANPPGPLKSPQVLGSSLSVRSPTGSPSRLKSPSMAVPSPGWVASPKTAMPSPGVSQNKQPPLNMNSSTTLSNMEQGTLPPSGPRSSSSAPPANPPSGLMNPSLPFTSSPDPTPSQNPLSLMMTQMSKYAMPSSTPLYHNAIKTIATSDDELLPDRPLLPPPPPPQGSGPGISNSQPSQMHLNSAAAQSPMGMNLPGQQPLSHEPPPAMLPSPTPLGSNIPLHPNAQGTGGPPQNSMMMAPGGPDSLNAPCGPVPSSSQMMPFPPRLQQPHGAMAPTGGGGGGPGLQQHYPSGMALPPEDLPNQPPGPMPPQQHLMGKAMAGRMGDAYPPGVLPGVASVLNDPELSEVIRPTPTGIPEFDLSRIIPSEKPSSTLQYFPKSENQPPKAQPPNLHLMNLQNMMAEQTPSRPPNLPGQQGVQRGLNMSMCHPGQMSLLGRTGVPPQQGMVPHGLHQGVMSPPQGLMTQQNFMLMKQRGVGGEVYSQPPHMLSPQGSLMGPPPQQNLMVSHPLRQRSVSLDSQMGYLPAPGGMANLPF
B3: Speckle-type POZ protein (Homo sapiens), O43791 (parent)
chain: B1 chain
partner: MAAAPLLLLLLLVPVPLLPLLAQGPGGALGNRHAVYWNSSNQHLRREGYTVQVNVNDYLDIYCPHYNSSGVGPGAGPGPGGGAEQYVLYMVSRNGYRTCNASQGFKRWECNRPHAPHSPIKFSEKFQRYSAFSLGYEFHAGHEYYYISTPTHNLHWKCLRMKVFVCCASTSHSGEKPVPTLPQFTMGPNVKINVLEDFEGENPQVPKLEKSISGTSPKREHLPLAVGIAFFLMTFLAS
B4: Speckle-type POZ protein (Homo sapiens), O43791 (parent)
chain: B1 chain
partner: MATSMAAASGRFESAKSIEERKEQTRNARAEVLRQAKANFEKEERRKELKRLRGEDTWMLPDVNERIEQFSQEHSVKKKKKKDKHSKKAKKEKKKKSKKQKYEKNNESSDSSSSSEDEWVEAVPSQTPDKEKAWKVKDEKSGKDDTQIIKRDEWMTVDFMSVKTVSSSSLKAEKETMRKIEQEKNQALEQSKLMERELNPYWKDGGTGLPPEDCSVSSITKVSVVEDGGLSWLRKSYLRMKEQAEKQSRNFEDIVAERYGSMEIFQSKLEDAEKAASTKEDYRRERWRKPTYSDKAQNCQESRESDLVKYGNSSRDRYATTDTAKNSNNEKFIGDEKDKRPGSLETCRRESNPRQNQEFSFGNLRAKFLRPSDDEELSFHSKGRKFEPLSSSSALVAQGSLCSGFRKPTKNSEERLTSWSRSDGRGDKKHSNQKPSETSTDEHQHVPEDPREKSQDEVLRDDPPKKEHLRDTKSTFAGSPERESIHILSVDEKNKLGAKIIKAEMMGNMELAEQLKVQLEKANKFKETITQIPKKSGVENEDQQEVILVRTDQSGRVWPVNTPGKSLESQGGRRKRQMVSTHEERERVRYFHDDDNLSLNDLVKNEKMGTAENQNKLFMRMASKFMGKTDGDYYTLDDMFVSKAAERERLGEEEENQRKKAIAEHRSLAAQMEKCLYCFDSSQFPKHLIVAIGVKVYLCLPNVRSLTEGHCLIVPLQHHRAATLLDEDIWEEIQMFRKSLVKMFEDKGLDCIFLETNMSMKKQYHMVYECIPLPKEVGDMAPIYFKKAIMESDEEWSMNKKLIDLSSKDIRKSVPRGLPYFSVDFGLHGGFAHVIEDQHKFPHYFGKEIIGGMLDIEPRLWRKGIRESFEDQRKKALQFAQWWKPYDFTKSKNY

Variants of: B1
Settings: with fancg_human FANCG

| effect of a mutation on the interaction | Variant |
| --- | --- |
| with no effect | F102C |

Variants of: B2
Settings: with bcl9l_human BCL9L

| effect of a mutation on the interaction | Variant |
| --- | --- |
| with no effect | F133L |

Variants of: B2
Settings: with bcl9l_human BCL9L
Remark: another data set of the same source

| effect of a mutation on the interaction | Variant |
| --- | --- |
| with no effect | F133V |

Variants of: B2
Settings: with bcl9l_human BCL9L
Remark: another data set of the same source

| effect of a mutation on the interaction | Variant |
| --- | --- |
| with no effect | F102C |

Variants of: B2
Settings: with bcl9l_human BCL9L
Remark: another data set of the same source

| effect of a mutation on the interaction | Variant |
| --- | --- |
| with no effect | Y87C |

Variants of: B3
Settings: with efna3_human EFNA3, P52797

| effect of a mutation on the interaction | Variant |
| --- | --- |
| with no effect | F102C |

Variants of: B3
Settings: with efna3_human EFNA3, P52797
Remark: another data set of the same source

| effect of a mutation on the interaction | Variant |
| --- | --- |
| with no effect | F133L |

Variants of: B3
Settings: with efna3_human EFNA3, P52797
Remark: another data set of the same source

| effect of a mutation on the interaction | Variant |
| --- | --- |
| with no effect | F133V |

Variants of: B3
Settings: with efna3_human EFNA3, P52797
Remark: another data set of the same source

| effect of a mutation on the interaction | Variant |
| --- | --- |
| with no effect | Y87C |

Variants of: B4
Settings: with CWF19L2, Q2TBE0

| effect of a mutation on the interaction | Variant |
| --- | --- |
| with no effect | F102C |

Variants of: B4
Settings: with CWF19L2, Q2TBE0
Remark: another data set of the same source

| effect of a mutation on the interaction | Variant |
| --- | --- |
| with no effect | F133V |

Variants of: B4
Settings: with CWF19L2, Q2TBE0
Remark: another data set of the same source

| effect of a mutation on the interaction | Variant |
| --- | --- |
| with no effect | F133L |
